Patent US20240151714A1 (AJOU UNIVERSITY INDUSTRY ACADEMIC COOPERATION FOUNDATION, published 2024)

How the values were obtained:
[1] = target: T1, cTnI protein (ab207624; Abcam) (UniProt P19429 1-210, limits assumed); assay: PPR-based homogeneous assay, specificity test (trastuzumab-DNA1 with pertuzumab-DNA2)
T1 construct: also called cardiac troponin I
Experimental: (§1) In a homogeneous assay to detect the target substance, samples were mixed with four conjugates (TEVP-first DNA′, BLZ-second DNA′, first binder-first DNA agent, second binder-second DNA) and […] CENTA™ (EMD Millipore, USA) in a reaction buffer (137 mM NaCl, 2.7 mM KCl, 10 mM Na₂HPO₄, 2 mM KH₂PO₄, 40 mM MgCl₂, 10 mM DTT, 0.5% (w/v) BSA, and pH 7.4). Hydrolysis of CENTA™ by β-lactamase was monitored by measuring absorbance (A₄₀₅) at 405 nm using a plate reader (synergy HT multi-detection reader; BioTek Instruments, USA) at 37° C. for 1 hour. The absorbance signal (ΔAbs=A₄₀₅ at 60 min−A₄₀₅ at 1 min) was plotted as a function of the concentration of the target substance. All experiments were performed at least three times and the limit of detection (LOD) was calculated as the sum of the mean ΔAbs of the blank and three times the standard deviation. In the competitive immunoassay for small molecule detection, an antibody against the target was further contained in the reaction solution. The following proteins were used as targets: HER2 (extracellular domain; 10004-H₀₈H; Sino Biological, China), cTnI protein (ab207624; Abcam, United Kingdom), thrombin (ab62452; Abcam), digoxigenin (D9026; Sigma, USA), digoxigenin polyclonal antibody (PA1-85378; Thermo Fisher Scientific, USA) and hCG monoclonal antibody (MA5-14680; Thermo Fisher Scientific).

[2] = target: thrombin (ab62452; Abcam) (human, UniProt P00734 328-622); assay: as above
Experimental: as §1

T1 sequence (P19429 whole entry): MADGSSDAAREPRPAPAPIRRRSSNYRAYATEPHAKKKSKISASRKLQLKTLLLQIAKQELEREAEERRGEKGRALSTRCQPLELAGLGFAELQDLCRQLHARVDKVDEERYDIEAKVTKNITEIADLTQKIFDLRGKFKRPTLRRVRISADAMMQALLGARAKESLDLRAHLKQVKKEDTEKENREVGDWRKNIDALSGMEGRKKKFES

binding result [1]: no binding (tested: 10 nM)
binding result [2]: no binding (tested: 10 nM)
B1: pertuzumab-second DNA conjugate (antibody, V domains shown)
VH: EVQLVESGGGLVQPGGSLRLSCAASGFTFTDYTMDWVRQAPGKGLEWVADVNPNSGGSIYNQRFKGRFTLSVDRSKNTLYLQMNSLRAEDTAVYYCARNLGPSFYFDYWGQGTLVTVSS
VL: DIQMTQSPSSLSASVGDRVTITCKASQDVSIGVAWYQQKPGKAPKLLIYSASYRYTGVPSRFSGSGSGTDFTLTISSLQPEDFATYYCQQYYIYPYTFGQGTKVEIKR
modifications: amine groups conjugated to amine-modified second DNA (SEQ ID NO: 2) via a bis-NHS ester linker; heterogeneous product, sites not stated
notes: IgG made in HEK293F cells and conjugated to ssDNA; also called pertuzumab-DNA2; P-D2
